# Experiment: soluble on expression in E. coli; label from the status in PepcDB or PDB records
row,Sequence,soluble on expression in E. coli
1,MTDEQRSGSRRRGGALGGGRGGNSQNSGRKRSSNSPADSASSSQKTSRNPSQNRPPMNIVPQKVTILKRNQDSQPTSPINRNAPPGPLVAAVQPLMAVELGDSGASLKGWNSNPTTPEKTTINVAGRQAEANKKQTQEYYFSKNAGSAVSAQTFQETVQYPMSSFPLEKNVPIQIDNNFTLLITPTTSKCNGLFIKVKLQHGDDNITTGALLKLDADEKTIRKSCRETIENLLKAKSSSDRFPFSKCSEGFLTSCLIKKLVDRLEAFPEAIYYCEKCDYHINTIGHAKAHLESSTHFDDVKRQEQREHLLKIIPPPTEAHLESVEKVLEGTLKSYQQVRQNGIEIGETIIYYLSTTVFPSIGLQDVILRPFGSVTYDVTLPDSDYNVAYTMSIPEGTPIFALLEQVRKKIADDGHPADHSMEMGTPSTIIFTFKGVRVKLCWMSCFNHRIQLHFSELMKTYVNLREEVAQFLQLIRLWATKAGLDSKNKPRIGLPRYGFDIMAIHFLQQIGCLPVLHELFEAGPETEKIEEMSAEKTAKLQSEEAGQRRMRLMSRYEKNTEKIGTKFDLKKSWNLAELFIGFFRYYVERHRDVVIQITQLIPMSRDVSRWNKKILHVVDPFRGDNVLSIPKVSTWQPFFFNCLLTSFVSFSIPRTKNGPLIEVSFVHNKTIKPGKKFKDTPKKATVEAPIPLTQIMEEHYQEPVYEIVNDKDHLKYMKELKERLMIDGILVNERKPIDYHTDDHRECVYGRNSLLRFKRVLKPGLNGKMAASMDGLSFVTKKGKKFINRWKKANVIILSEDSSEIDEKTKAADSNVSEIAEKLEETLKISSQKNIDVAVTSMPVSTEIKPEPITKLSNEAPVKIKNVAQPQCDLIEAPQESLMNESMMESSFDETESPMKTPIVQKPVKQNATFGKSTISTVIPDKQFCSEEFFIKLNSNLKDIVSKSKSLKPSDFHYEFSTDLFCGDFEMEMKCTHCDGSHCVENCPMMEIPPIKKYQARTPEDLKDIDDMIDKYYHENILDERRLKMLDHKIDELQSFLRKNYREDVTLTTFGSVMTGLSVNCSDIDICLRFGDGDVPPKDLTAKEVIQKTESVLRKCHLVKRVQAIVTAKVPIVKFQVKLSNGAIIDVDISYYNILAIYNTALLKEYSLWTPDKRFAKLALFVKTWAKNCEIGDASRGSLSSYCHVIMLISYLQNCDPPVLPRLQEDFRSDNRERRLVDNWDTSFAQVETSLLQRWPKNKESCAQLLIGYFDYYSRFDFRNFVVQCRREMILSKMEKEWPRPLCVEDPFDLSHNLSSGVNKKMFVFIMKVFINSRAVFMSEKPPMNRDHTFLSSYQHQLLRKCNQGSAPTDRQCHQCHRIGHFVESCPQRALAKEARKRFGSNSTNSSYRSNDSGRGFKNGEEGGDRLTYHKRTYYHRSYNK,not soluble
2,MTDLNKHIKQAQTQRKQLLEESRELHREKLLVQAENRFFLEYLTNKTEEYTEQPEKVWNSYLQKSGEIERRRQESASRYAEQISVLKTALLQKENIQSSLKRKLQAMRDIAILKEKQEKEIQTLQEETKKVQAETASKTREVQAQLLQEKRLLEKQLSEPDRRLLGKRKRRELNMKAQALKLAAKRFIFEYSCGINRENQQFKKELLQLIEQAQKLTATQSHLENRKQQLQQEQWYLESLIQARQRLQGSHNQCLNRQDVPKTTPSLPQGTKSRINPK,not soluble
3,MTDRYSFSLTTFSPSGKLGQIDYALTAVKQGVTSLGIKATNGVVIATEKKSSSPLAMSETLSKVSLLTPDIGAVYSGMGPDYRVLVDKSRKVAHTSYKRIYGEYPPTKLLVSEVAKIMQEATQSGGVRPFGVSLLIAGHDEFNGFSLYQVDPSGSYFPWKATAIGKGSVAAKTFLEKRWNDELELEDAIHIALLTLKESVEGEFNGDTIELAIIGDENPDLLGYTGIPTDKGPRFRKLTSQEINDRLEAL,soluble
4,MTEEFEIAGISTGAWWSSPTNTAAVFSGYSLPCSTEISPDVTNFGWQNFDNKINDHNDGCMNMHNSFFEGLLIDPNDQLLPDPWSKSTIPNAKSELLENFPFLDNMFLVDSEAESLLDHEIRNHKSSKEQITQDYKNLTSKAQLEENSDEYSPRLLKRPRLETLSPLPSFKVRKEKLGDRITALQQLVSPFGKTDTASVLNEAVEYIKFLQEQVTVLSNPEQNTIGSVQQQQCSNKKSINTQGEVEEDECSPRRYVDLSSRGLCLMPISASYPVAAAAASAAEMNVHLVSGIFHSL,soluble
5,MTEEKPKIGRPPVLSCAERTCQILRAAEQVFVCHGYSGTTMDRIACAAGMSKRTLYQHFPDKLAVLQGILRAYDAGPLMESLTDPDPPGSAREILHRSLVEILRFLLCPAQVALTRLAVSEATAAPEVARLFYDNAMGGLSAAFTRRIAGLAAQGRIRCSDADWLGSSLVGCALNRQLLRRLTHPEAGPPDVAELERRVSALLDLVGPSLGFAD,not soluble
6,MTEFFSQKQIDEIRECFNFYSTSGVLRTDSQLRCALRSLGYSPTASKTDIYFKKLNKKPIEFATFLDICKDEQNSPNPLTEIIKALSGLDRNKTRAMPSRELAAILSHVGEQMSPEEIKYLLSKVEVNGMVPHQALIEYISK,not soluble
7,MTEHLLAMNQKLKNPDEALSLFGNQDSFLKLMEKDLNLNIITRGETIYVSGDDESFQIADRLLGSLLALIRKGIEISERDVIYAIKMAKKNELEYFESMYEEEITKNAKGKSIRVKTMGQREYVAAMKRNDLVFGIGPAGTGKTYLAVVKAVHALKNGHIKKIILTRPAVEAGESLGFLPGDLKEKVDPYLRPLYDALHDVLGADHTERLMERGIIEIAPLAYMRGRTLDDAYVILDEAQNTTPAQMKMFLTRLGFSSKMIITGDVSQIDLPKGVKSGLAVAKEMLKGIDGISMIELDQTDVVRHPLVAKIIEAYDKQN,not soluble
8,MTEKKKRGLLSWLGFGDEEKSQTTATDTQTQDEPQSQADVEAVAIQTETALTETETETETETETETETETATVEPARIVEQEKPTESFFARLKRSLSRTKANIGAGFFGLFKGKKIDDDLFEELEEQLLIADVGMDTTSKIIANLTARASRQQLRDGEALYGLLKEEMAEILSQVEQPLVIDTEKKPYVILMVGVNGVGKTTTIGKLAKQFQAQGKKVMLAAGDTFRAAAVEQLQVWGERNQVPVIAQHTGADSASVIYDAIEAAKARGIDVVIADTAGRLQNKSNLMEELRKIVRVMKKIDDSAPHEIMLTLDAGTGQNAISQAKLFSDVAPITGITLTKLDGTAKGGVIFAIADQFQIPIRYIGVGEKIDDLRPFATQEFIDALFSREE,not soluble
9,MTELDQFWPACLARLEAELSSQQFNTWIKPLTAEAGDEGIALFAPNRFIMQFIKDRFLPRIEELAVELVGELPVELRLGAPTARPAAPVAGNSQPKAKEPAKAAASAPAAPSPAKQAAVKAIGGSHESTRLNPSFTFDTLVTGKGNQLARAAAMQIAENPGDQAYNPLFVYGGVGLGKTHLIQAIGNHVFQKNPQAKIRYIHAERYVADIMRAYQHKAFDEFKRYYHSLDLLLIDDIQFFAGKNRTQEEFFYAFNALIEGGKQVIMTCDSYPKQIEGMEERLISRFSWGLTVEIQPPELEMRVAILMKKAEADSIKLEHNVAFFIAQNVRSNVRELEGALKRVVAYARFTSQNITLELVKEALKDILAAGNRQVTVDAIQKTVAEYYKIKLSDMHSKKRSRDIARPRQVAMALAKELTQLSLPNIGDAFGGRDHTTVLHACKTITEMRASDADIAHDYEALLSMLRNLEHHHHHH,not soluble
10,MTENAPKFKQISAEIEKKIRDGLYVSAQKLPSEYDLAKEYNCSRLTIRKAIDDLIRKNILVKRHGKGSYVMSQAKIQSGRAGLQGFTEAAKAYGKKSQTEVISFEEVVHPAEKIREALQVGKNEAIYELIRRRMLDGEPMTVEKIYLPQAYVQGHTKQDFEGSLFCLIEKNVEIAYSHQEIEAILVEAEISELLNVPVGQPLLQVHSITYALDATPILYDVSLYRADRYTFKNTLTRYSPSENNQVELGGSWNE,not soluble
11,MTENVPLTRPQLRRLLRNARRALTPAQQRQATLGLYRQLAQHPLFRRARHIALYLPNDGEIDPRLLMREAQRRGKCIYLPVLHAWPRTRMVFQRFEQGEKLKPNRFRIPEPIIDRKRQRPIWALDLILLPLVGFDEVGGRLGMGGGFYDRSLAYQARRQTWKKPLLLGLAHECQKVERLAQASWDVPLQGTVSDRGWYLAPRLEHHHHHH,soluble
12,MTEQPAVAAPYDVLFEPVQIGPFTTKNRFYQVPHCNGMGYRDPSAQASMRKIKAEGGWSAVCTEQVEIHATSDIAPFIELRIWDDQDLPALKRIADAIHEGGGLAGIELAHNGMNAPNQLSRETPLGPGHLPVAPDTIAPIQARAMTKQDIDDLRRWHRNAVRRSIEAGYDIVYVYGAHGYSGVHHFLSKRYNQRTDEYGGSLENRMRLLRELLEDTLDECAGRAAVACRITVEEEIDGGITREDIEGVLRELGELPDLWDFAMGSWEGDSVTSRFAPEGRQEEFVAGLKKLTTKPVVGVGRFTSPDAMVRQIKAGILDLIGAARPSIADPFLPNKIRDGRLNLIRECIGCNICVSGDLTMSPIRCTQNPSMGEEWRRGWHPERIRAKESDARVLVVGAGPSGLEAARALGVRGYDVVLAEAGRDLGGRVTQESALPGLSAWGRVKEYREAVLAELPNVEIYRESPMTGDDIVEFGFEHVITATGATWRTDGVARFHTTALPIAEGMQVLGPDDLFAGRLPDGKKVVVYDDDHYYLGGVVAELLAQKGYEVSIVTPGAQVSSWTNNTFEVNRIQRRLIENGVARVTDHAVVAVGAGGVTVRDTYASIERELECDAVVMVTARLPREELYLDLVARRDAGEIASVRGIGDAWAPGTIAAAVWSGRRAAEEFDAVLPSNDEVPFRREVTQLA,soluble
13,MTEQTFSIREAVPTDADQLLSVMSKIGSETPYLVMDERGMAMSTTELAENLATLYESPNNVLLVALAGEAIIGTASVSASSKKRMEHIGEIGISILKEYWGYGLGSILMEELIRWAHESHVIRRLELTVQDRNQRAIHVYKKLGFETEAIMPRGAKTDQGEFLDVHLMRLLID,not soluble
14,MTEVYDLEITTNATDFPMEKKYPAGMSLNDLKKKLELVVGTTVDSMRIQLFDGDDQLKGELTDGAKSLKDLGVRDGYRIHAVDVTGGNEDFKDESMVEKYEMSDDTYGKRTDSVRAWKKKMQEEQGSAAPMENESDKLNEEAAKNIMVGNRCEVTVGAQMARRGEVAYVGATKFKEGVWVGVKYDEPVGKNDGSVAGVRYFDCDPKYGGFVRPVDVKVGDFPELSIDEI,soluble
15,MTFEEKRKHLETTYPNKRTPESRAKSREILKLIADNLEMFPIASPESSSSKAKTDPMSRLEHGSEFNDLTVPRVEKLTPVSELYSIENTSLKFGTEDDFSDLSYSNTSPFQSVSTLYDQPSTPFSDDSDLEATPRTCVQ,not soluble
16,MTFLRYAIYFLPPASEAWAGFGASWLGWDVETGQELAHPAETGLDVAALTATPRKYGLHATMKPPFRLAEGQDVDALRRACATLAASRPAVTLDGLEIARLGRFLALRPVGELGALNALAAACVTELDPFRAPATPQELVRRRAARLSPEQDAHLLSWGYPYVLDQFRFHITLTGRLDDDMLMQAQTLLQRRLGPLLPVPFTLADLALVGEAGDGRFHLIHRYALSR,not soluble
17,MTGAATAAENSATQLEFYRKALNFNVIGRYDPKIKQLLFHTPHASLYKWDFKKDEWNKLEYQGVLAIYLRDVSQNTNLLPVSPQEVDIFDSQNGSNNIQVNNGSDNSNRNSSGNGNSYKSNDSLTYNCGKTLSGKDIYNYGLIILNRINPDNFSMGIVPNSVVNKRKVFNAEEDTLNPLECMGVEVKDELVIIKNLKHEVYGIWIHTVSDRQNIYELIKYLLENEPKDSFA,soluble
18,MTGAVCPGSFDPVTLGHVDIFERAAAQFDEVVVAILVNPAKTGMFDLDERIAMVKESTTHLPNLRVQVGHGLVVDFVRSCGMTAIVKGLRTGTDFEYELQMAQMNKHIAGVDTFFVATAPRYSFVSSSLAKEVAMLGGDVSELLPEPVNRRLRDRLN,soluble
19,MTGITIFYGDNIIRYVVNTKKGLRPYFKQLPDNYQAKFELNLMSKFSNFIINKPFSAINTAARHIFSRYLLENKHLFYQYFKISNTGIDHLEQLINVNFFSSDRTSFCECNRFP,not soluble
